How the values were obtained:
HeLa Kyoto [1] = assay: solubility in G1/S (NP-40 vs SDS abundance) (log2 ratio); higher = more soluble; conditions: cell cycle stage: G1/S
HeLa Kyoto [2] = assay: melting temperature (median over replicates), in situ; higher = more thermally stable
HeLa Kyoto [3] = assay: solubility change mitosis vs G1/S (difference of NP-40 vs SDS log2 ratios) (log2 ratio difference); higher = more soluble in mitosis
HeLa Kyoto [4] = assay: thermal stability score vs G1/S (z-score of summed log2 fold changes over temperatures); higher = more thermally stable than in G1/S
[5] = cell cycle stage: early G1 (4.5 h after nocodazole release)
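Wherever melting temperature (median over replicates), in situ is given: HeLa Kyoto cells synchronized by double thymidine or nocodazole block, proteins quantified by TMT10plex mass spectrometry, three independent biological replicates.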
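Wherever solubility change mitosis vs G1/S (difference of NP-40 vs SDS log2 ratios) is given: synchronized HeLa Kyoto cells (double thymidine block for G1/S, nocodazole release for mitosis), protein amounts in NP-40 versus SDS lysates quantified by mass spectrometry, three biological replicates.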
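Wherever solubility in G1/S (NP-40 vs SDS abundance) is given: HeLa Kyoto cells arrested at G1/S by double thymidine block, proteins quantified by TMT10plex mass spectrometry in mild NP-40 versus SDS extracts, three biological replicates.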
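Wherever thermal stability score vs G1/S (z-score of summed log2 fold changes over temperatures) is given: synchronized HeLa Kyoto cells, proteins quantified by TMT10plex mass spectrometry, three biological replicates, mitosis taken 0.5 h after nocodazole release, G1/S directly after double thymidine block.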

Substance	solubility in G1/S (log2) (HeLa Kyoto [1])	melting temperature (HeLa Kyoto [2]; cell cycle stage: G1/S)	melting temperature (HeLa Kyoto [2]; cell cycle stage: mitosis)	solubility change mitosis (log2) (HeLa Kyoto [3])	thermal stability score (HeLa Kyoto [4]; [5])	thermal stability score (HeLa Kyoto [4]; cell cycle stage: mitosis)
MKKQFNRMKQLANQTVGRAEKTEVLSEDLLQIERRLDTVRSICHHSHKRLVACFQGQHGTDAERRHKKLPLTALAQNMQEASTQLEDSLLGKMLETCGDAENQLALELSQHEVFVEKEIVDPLYGIAEVEIPNIQKQRKQLARLVLDWDSVRARWNQAHKSSGTNFQGLPSKIDTLKEEMDEAGNKVEQCKDQLAADMYNFMAKEGEYGKFFVTLLEAQADYHRKALAVLEKTLPEMRAHQDKWAEKPAFGTPLEEHLKRSGREIALPIEACVMLLLETGMKEEGLFRIGAGASKLKKLKAALDCSTSHLDEFYSDPHAVAGALKSYLRELPEPLMTFNLYEEWTQVASVQDQDKKLQDLWRTCQKLPPQNFVNFRYLIKFLAKLAQTSDVNKMTPSNIAIVLGPNLLWARNEGTLAEMAAATSVHVVAVIEPIIQHADWFFPEEVEFNVSEAFVPLTTPSSNHSFHTGNDSDSGTLERKRPASMAVMEGDLVKKESFGVKLMDFQAHRRGGTLNRKHISPAFQPPLPPTDGSTVVPAGPEPPPQSSRAESSSGGGTVPSSAGILEQGPSPGDGSPPKPKDPVSAAVPAPGRNNSQIASGQNQPQAAAGSHQLSMGQPHNAAGPSPHTLRRAVKKPAPAPPKPGNPPPGHPGGQSSSGTSQHPPSLSPKPPTRSPSPPTQHTGQPPGQPSAPSQLSAPRRYSSSLSPIQAPNHPPPQPPTQATPLMHTKPNSQGPPNPMALPSEHGLEQPSHTPPQTPTPPSTPPLGKQNPSLPAPQTLAGGNPETAQPHAGTLPRPRPVPKPRNRPSVPPPPQPPGVHSAGDSSLTNTAPTASKIVTDSNSRVSEPHRSIFPEMHSDSASKDVPGRILLDIDNDTESTAL [ARHGAP17]	0.413	48.2 °C	49.1 °C	-0.0286	0.76	2.7
MDFLMSGLAACGACVFTNPLEVVKTRMQLQGELQAPGTYQRHYRNVFHAFITIGKVDGLAALQKGLAPALLYQFLMNGIRLGTYGLAEAGGYLHTAEGTHSPARSAAAGAMAGVMGAYLGSPIYMVKTHLQAQAASEIAVGHQYKHQGMFQALTEIGQKHGLVGLWRGALGGLPRVIVGSSTQLCTFSSTKDLLSQWEIFPPQSWKLALVAAMMSGIAVVLAMAPFDVACTRLYNQPTDAQGKGLMYRGILDALLQTARTEGIFGMYKGIGASYFRLGPHTILSLFFWDQLRSLYYTDTK [SLC25A35]	0.0544	56.2 °C	54.3 °C	-0.137	0.653	-0.326
MTSMTQSLREVIKAMTKARNFERVLGKITLVSAAPGKVICEMKVEEEHTNAIGTLHGGLTATLVDNISTMALLCTERGAPGVSVDMNITYMSPAKLGEDIVITAHVLKQGKTLAFTSVDLTNKATGKLIAQGRHTKHLGN [ACOT13]	0.372	56.4 °C	57.7 °C	-0.0848	-1.62	-1.82
MGST3	-0.272	56.3 °C	55.7 °C	0.0779	-2.44	-4.93
MSRPSSVSPRQPAPGGGGGGGPSPCGPGGGGRAKGLKDIRIDEEVKIAVNIALERFRYGDQREMEFPSSLTSTERAFIHRLSQSLGLVSKSKGKGANRYLTVKKKDGSETAHAMMTCNLTHNTKHAVRSLIQRFPVTNKERTELLPKTERGNVFAVEAENREMSKTSGRLNNGIPQIPVKRGESEFDSFRQSLPVFEKQEEIVKIIKENKVVLIVGETGSGKTTQIPQFLLDDCFKNGIPCRIFCTQPRRLAAIAVAERVAAERRERIGQTIGYQIRLESRVSPKTLLTFCTNGVLLRTLMAGDSTLSTVTHVIVDEVHERDRFSDFLLTKLRDLLQKHPTLKLILSSAALDVNLFIRYFGSCPVIYIQGRPFEVKEMFLEDILRTTGYTNKEMLKYKKEKQQEEKQQTTLTEWYSAQENSFKPESQRQRTVLNVTDEYDLLDDGGDAVFSQLTEKDVNCLEPWLIKEMDACLSDIWLHKDIDAFAQVFHLILTENVSVDYRHSETSATALMVAAGRGFASQVEQLISMGANVHSKASNGWMALDWAKHFGQTEIVDLLESYSATLEFGNLDESSLVQTNGSDLSAEDRELLKAYHHSFDDEKVDLDLIMHLLYNICHSCDAGAVLIFLPGYDEIVGLRDRILFDDKRFADSTHRYQVFMLHSNMQTSDQKKVLKNPPAGVRKIILSTNIAETSITVNDVVFVIDSGKVKEKSFDALNFVTMLKMVWISKASAIQRKGRAGRCRPGICFRLFSRLRFQNMLEFQTPELLRMPLQELCLHTKLLAPVNCPIADFLMKAPEPPPALIVRNAVQMLKTIDAMDTWEDLTELGYHLADLPVEPHLGKMVLCAVVLKCLDPILTIACTLAYRDPFVLPTQASQKRAAMLCRKRFTAGAFSDHMALLRAFQAWQKARSDGWERAFCEKNFLSQATMEIIIGMRTQLLGQLRASGFVRARGGGDIRDVNTNSENWAVVKAALVAGMYPNLVHVDRENLVLTGPKEKKVRFHPASVLSQPQYKKIPPANGQAAAIKALPTDWLIYDEMTRAHRIANIRCCSAVTPVTILVFCGPARLASNALQEPSSFRVDGIPNDSSDSEMEDKTTANLAALKLDEWLHFTLEPEAASLLLQLRQKWHSLFLRRMRAPSKPWSQVDEATIRAIIAVLSTEEQSAGLQQPSGIGQRPRPMSSEELPLASSWRSNNSRKSSADTEFSDECTTAERVLMKSPSPALHPPQKYKDRGILHPKRGTEDRSDQSSLKSTDSSSYPSPCASPSPPSSGKGSKSPSPRPNMPVRYFIMKSSNLRNLEISQQKGIWSTTPSNERKLNRAFWESSIVYLVFSVQGSGHFQGFSRMSSEIGREKSQDWGSAGLGGVFKVEWIRKESLPFQFAHHLLNPWNDNKKVQISRDGQELEPLVGEQLLQLWERLPLGEKNTTD [YTHDC2]	-0.57	50.2 °C	50 °C	0.163	-0.356	0.243

Reference: the supplement of paper PMC5998384
